Data from article doi:10.1101/2025.05.23.654710.

How the values were obtained:
Experiment in all cases: EMSA
Msn2 DBD = target: T1, Msn2 DBD (Saccharomyces cerevisiae, UniProt P33748)
T1 sequence: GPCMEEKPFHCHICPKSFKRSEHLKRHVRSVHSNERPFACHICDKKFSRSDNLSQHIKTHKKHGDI

Msn2 IDR = target: T2, Msn2 IDR (Saccharomyces cerevisiae, UniProt P33748)
T2 sequence: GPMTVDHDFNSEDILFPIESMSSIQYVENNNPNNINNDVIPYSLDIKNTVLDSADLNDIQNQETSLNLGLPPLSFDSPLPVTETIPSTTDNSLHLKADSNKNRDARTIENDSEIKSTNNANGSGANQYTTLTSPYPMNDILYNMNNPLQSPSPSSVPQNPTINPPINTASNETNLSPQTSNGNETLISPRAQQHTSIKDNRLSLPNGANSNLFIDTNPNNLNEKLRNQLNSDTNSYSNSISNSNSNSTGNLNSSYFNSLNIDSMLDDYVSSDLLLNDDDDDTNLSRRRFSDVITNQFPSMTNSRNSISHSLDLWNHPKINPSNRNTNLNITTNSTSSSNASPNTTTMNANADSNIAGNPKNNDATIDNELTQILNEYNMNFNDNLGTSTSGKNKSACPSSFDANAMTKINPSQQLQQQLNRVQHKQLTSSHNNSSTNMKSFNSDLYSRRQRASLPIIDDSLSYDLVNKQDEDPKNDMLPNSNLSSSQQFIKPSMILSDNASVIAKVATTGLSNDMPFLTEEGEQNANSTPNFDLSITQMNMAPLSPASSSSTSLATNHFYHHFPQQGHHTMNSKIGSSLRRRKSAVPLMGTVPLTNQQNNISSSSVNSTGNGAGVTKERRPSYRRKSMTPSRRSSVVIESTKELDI

Msn2 WT = target: T3, Msn2 WT (Saccharomyces cerevisiae, UniProt P33748)
T3 sequence: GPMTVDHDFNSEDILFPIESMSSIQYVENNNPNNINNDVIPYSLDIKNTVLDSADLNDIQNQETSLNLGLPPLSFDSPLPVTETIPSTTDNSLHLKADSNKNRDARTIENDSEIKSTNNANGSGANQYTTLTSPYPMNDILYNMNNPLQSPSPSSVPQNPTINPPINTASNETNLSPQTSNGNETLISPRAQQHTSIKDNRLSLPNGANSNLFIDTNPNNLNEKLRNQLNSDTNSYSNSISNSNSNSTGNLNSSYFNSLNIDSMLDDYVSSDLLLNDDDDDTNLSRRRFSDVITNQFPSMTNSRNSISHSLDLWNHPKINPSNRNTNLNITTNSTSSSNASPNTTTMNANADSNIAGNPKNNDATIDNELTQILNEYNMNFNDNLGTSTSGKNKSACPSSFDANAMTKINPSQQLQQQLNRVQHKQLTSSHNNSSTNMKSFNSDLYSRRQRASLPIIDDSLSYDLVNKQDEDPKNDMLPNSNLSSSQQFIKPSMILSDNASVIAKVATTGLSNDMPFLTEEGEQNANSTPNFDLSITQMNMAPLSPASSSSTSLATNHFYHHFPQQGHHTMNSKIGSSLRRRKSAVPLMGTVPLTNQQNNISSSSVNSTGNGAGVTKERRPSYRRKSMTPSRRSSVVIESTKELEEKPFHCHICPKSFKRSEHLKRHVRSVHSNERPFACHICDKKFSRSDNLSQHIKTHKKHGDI

Measured: binding result

B1: 51 bp DNA with motif (dsDNA)
DNA 1: CGAAATTATATGGATGAGTAGGTGGGGAAGGAAGTATGTGTAGGTGGCAGG
DNA 2: CCTGCCACCTACACATACTTCCTTCCCCACCTACTCATCCATATAATTTCG
binds: Msn2 DBD | Msn2 IDR | Msn2 WT
